# Assay results as given in patent US20150158910A1 (Bristol-Myers Squibb, published 2015).
# T1: PAR1 (protease activated receptor 1), endogenous in HEK293 cells (UniProt P25116 42-425, limits assumed)
# T1 sequence (looked up): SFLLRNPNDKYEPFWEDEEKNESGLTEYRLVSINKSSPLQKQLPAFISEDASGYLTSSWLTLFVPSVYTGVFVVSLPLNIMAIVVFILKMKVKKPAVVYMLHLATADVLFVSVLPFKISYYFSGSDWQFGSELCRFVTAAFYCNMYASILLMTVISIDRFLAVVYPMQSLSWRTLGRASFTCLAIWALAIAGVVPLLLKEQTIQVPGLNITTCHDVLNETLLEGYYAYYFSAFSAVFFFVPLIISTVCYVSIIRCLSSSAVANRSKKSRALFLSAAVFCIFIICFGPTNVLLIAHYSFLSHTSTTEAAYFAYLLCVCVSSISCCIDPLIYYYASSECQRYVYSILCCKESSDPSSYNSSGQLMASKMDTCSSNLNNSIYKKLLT
# T2: human PAR4 (protease activated receptor 4) (human, UniProt Q96RI0 48-385)
# T2 sequence (looked up): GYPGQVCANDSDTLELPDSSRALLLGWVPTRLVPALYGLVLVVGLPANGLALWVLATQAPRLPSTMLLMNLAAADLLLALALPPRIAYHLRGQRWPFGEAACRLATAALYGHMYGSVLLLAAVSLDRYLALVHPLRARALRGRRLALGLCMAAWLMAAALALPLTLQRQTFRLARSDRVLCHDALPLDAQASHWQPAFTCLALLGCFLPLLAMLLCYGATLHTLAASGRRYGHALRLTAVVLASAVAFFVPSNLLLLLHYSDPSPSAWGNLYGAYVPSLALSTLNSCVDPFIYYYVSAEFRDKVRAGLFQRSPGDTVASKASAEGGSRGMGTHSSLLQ
# Legend:
# [1] = target: T1, PAR1 (protease activated receptor 1), …; experiment: cell-based or functional assay
# [2] = target: T2, human PAR4 (protease activated receptor …); experiment: cell-based or functional assay
Binder,"EC50, calcium mobilization (FLIPR/FDSS) in HEK293 PAR4 cells, PAR1 counter screen [1] [µM]",EC50 (µM) FLIPR Assay [2] [µM]
SFFLRR [SFFLRR (SEQ ID NO: 35)],0.6,
AYPGWLVKNG (free N-terminus; C-terminal amide) [PAR4 agonist peptide SEQ ID NO: 2],,4.8
AYPG [Peptide SEQ ID NO: 10],,600
AYPGQVCAND [Peptide SEQ ID NO: 11],,159
